Reference: patent US20110301073, “Novel DNA-binding proteins and uses thereof” (Sangamo BioSciences, Inc., published 2011)

Legend:
TALE13 N+121 C+52 = TALE13 N+121 C+52 (Xanthomonas axonopodis); experiment: DNA-binding ELISA; background level
From the text: (§1) When clones #3, 4 and 5 were subjected to the SELEX procedure, no consensus sequences were detected. Thus it appears that the TALE binding domains require N- and C-terminal cap sequences comprised in from clone #2 to yield a consensus sequence in this assay. Additional truncations were made and tested for activity using a DNA binding ELISA assay essentially as described in Bartsevich et al., Stem Cells. 2003; 21:632-7. The truncations are presented below in Table 7, which also includes the ELISA results. The starting N-terminus in these truncations is at amino acid 152, identical to the N-terminus in the #1, #2, and #3 truncations discussed above. In this fine-scale truncation series, the end points are as follows.

TALE13 N+100 C+52 = TALE13 N+100 C+52 (Xanthomonas axonopodis); experiment: DNA-binding ELISA; background level
From the text: as §1

TALE13 N+111 C+52 = TALE13 N+111 C+52 (Xanthomonas axonopodis); experiment: DNA-binding ELISA; background level
From the text: as §1

TALE13 N+100 C+115 = TALE13 N+100 C+115 (Xanthomonas axonopodis); experiment: DNA-binding ELISA; background level
From the text: as §1

TALE13 N+91 C+115 = TALE13 N+91 C+115 (Xanthomonas axonopodis); experiment: DNA-binding ELISA; background level
From the text: as §1

TALE13 N+91 C+52 = TALE13 N+91 C+52 (Xanthomonas axonopodis); experiment: DNA-binding ELISA; background level
From the text: as §1

TALE13 +63 FokI = biological target: T1, TALE13 +63 FokI (Xanthomonas axonopodis (engineered)); experiment: cleavage_in_vitro; two inverted sites, 16 bp gap; NEB Buffer 2, 37 C; conditions: tags: FLAG, NLS, chain copies: 2
T1 chain: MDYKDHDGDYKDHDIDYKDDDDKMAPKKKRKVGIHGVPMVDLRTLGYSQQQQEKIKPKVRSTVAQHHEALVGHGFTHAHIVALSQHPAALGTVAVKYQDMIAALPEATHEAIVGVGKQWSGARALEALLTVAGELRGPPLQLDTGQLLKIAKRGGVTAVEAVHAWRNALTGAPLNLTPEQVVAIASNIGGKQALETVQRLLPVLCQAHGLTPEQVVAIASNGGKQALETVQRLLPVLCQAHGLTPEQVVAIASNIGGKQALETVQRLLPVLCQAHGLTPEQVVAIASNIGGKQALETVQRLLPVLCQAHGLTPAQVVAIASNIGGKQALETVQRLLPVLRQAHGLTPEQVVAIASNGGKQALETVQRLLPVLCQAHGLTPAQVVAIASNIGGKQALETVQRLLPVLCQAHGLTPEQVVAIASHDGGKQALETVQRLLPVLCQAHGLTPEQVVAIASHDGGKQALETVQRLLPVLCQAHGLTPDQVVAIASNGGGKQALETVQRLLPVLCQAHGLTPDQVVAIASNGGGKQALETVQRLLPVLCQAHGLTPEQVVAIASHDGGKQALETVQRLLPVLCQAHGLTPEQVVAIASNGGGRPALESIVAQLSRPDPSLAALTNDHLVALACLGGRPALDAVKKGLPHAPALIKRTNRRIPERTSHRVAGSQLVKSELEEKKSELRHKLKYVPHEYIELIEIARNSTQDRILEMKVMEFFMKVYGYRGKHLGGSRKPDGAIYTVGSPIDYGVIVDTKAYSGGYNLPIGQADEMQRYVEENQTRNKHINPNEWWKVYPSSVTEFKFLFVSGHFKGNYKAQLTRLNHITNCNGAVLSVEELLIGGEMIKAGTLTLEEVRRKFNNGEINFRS
Protocol: TALE domain fusions were also constructed using Fold cleavage half domains. For these examples, wild type FokI half cleavage domains were used so that for nuclease activity, a homodimer must be formed from two of the fusions. For these fusions, the TALE13 DNA binding domain was fused to each FokI half domain by cloning the TALE DNA binding domain into a plasmid adjacent to FokI-specifying sequence. In addition, various linkers were tested for use between the DNA binding domain and the nuclease domain. Linkers L2 and L8 were used which are as follows: L2=GS (SEQ ID NO:71) and L8=[…] (SEQ ID NO:72). The target sites were cloned into a TOPO2.1 target vector (Invitrogen) with varying gap spacings between each target binding site such that the two were separated from each other by 2 to 22 bp. PCR amplification of an approximately 1 kb region of the target vector was done to generate the target DNAs. The TALE DNA binding domains were also truncated as described previously, and are described using the same nomenclature as described above in Examples 2 and 6. The TALE domain nuclease fusion clones were expressed in the TNT Rabbit Reticulocyte Lysate system by adding 5 μL of water containing 250 nanograms of the nuclease fusion clone plasmid to 20 μL of lysate and incubating at 30° C. for 90 minutes.
The lysate was then used to cleave the target DNAs as follows: 2.5 μL of lysate were added to a 50 μL reaction containing 50 nanograms of PCR-amplified target DNA and a final Buffer 2 (New England Biolabs) concentration of 1×. The cleavage reaction was for one hour at 37° C., followed by a 20 minute heat inactivation stage at 65° C. The reaction was then centrifuged at high speed to separate the target DNA from the lysate, causing the lysate to condense into a pellet in the reaction well. The DNA-containing supernatant was pipetted off and run on an ethidium bromide-stained agarose gel (Invitrogen) to separate intact target DNA from cleaved target DNA. The agarose gel was then analyzed using AlphaEaseFC (Alpha Innotech) software to measure the amount of target DNA present in the large uncleaved DNA band and the two smaller DNA bands resulting from a single cleavage event of the target DNA. The percentage of cleaved DNA out of the total amount of target DNA loaded into the gel represents the percent cleavage in each reaction.

TALE13 N+137 C+95 = TALE13 N+137 C+95 (Xanthomonas axonopodis); experiment: DNA-binding ELISA; replicates; conditions: tags: N-terminal Met
From the text: as §1

B1: TALE13 target (dsDNA)
DNA 1: TATAAATACCTTCT
DNA 2: AGAAGGTATTTATA
binding result (TALE13 N+121 C+52): no binding | binding result (TALE13 N+100 C+52): no binding | binding result (TALE13 N+111 C+52): no binding | binding result (TALE13 N+100 C+115): no binding | binding result (TALE13 N+91 C+115): no binding | binding result (TALE13 N+91 C+52): no binding | activity (TALE13 +63 FokI): 70 % cleavage | binding result (TALE13 N+137 C+95): binds
